Measurements as given in US20050182242A1, “Global analysis of protein activities using proteome chips” (priority 2001, published 2005).

B1: CMK1: yeast calcium/calmodulin-dependent serine/threonine protein kinase, GST-HisX6 fusion (protein)
chain: MDDKVSEKESSPKQTEEDSEGKMAHVQPASYVNKKKYVFGKTLGAGTFGVVRQAKNTETGEDVAVKILIKKALKGNKVQLEALYDELDILQRLHHPNIVAFKDWFESKDKFYIITQLAKGGELFDRILKKGKFTEEDAVRILVEILSAVKYMHSQNIVHRDLKPENLLYIDKSDESPLVVADFGIAKRLKSDEELLYKPAGSLGYVAPEVLTQDGHGKPCDIWSIGVITYTLLCGYSAFRAERVQDFLDECTTGEYPVKFHRPYWDSVSNKAKQFILKALNLDPSKRPTAAELLEDPWIICTELKTHNLLPGLKEGLDARQKFRNSVERVRLNMKIQKLRDLYLEQTESDSDFDEGSQANGSVPPLKATDTSQLSKKLSEEEQSKLKSELTSKAFAQLVNTVLAEKEKFLNINRVCSSDSDLPGSDIKSLDEAKEKPEGKDTKTEE
modifications: left off: a dimerising Fc or GST
notes: yeast calcium/calmodulin-dependent serine/threonine protein kinase, GST-HisX6 fusion
B2: MY04: yeast class V myosin heavy chain, GST-HisX6 fusion (protein, UniProt P32492 1-1471, looked up)
Myosin-4: MSFEVGTKCWYPHKEQGWIGGEVTKNDFFEGTFHLELKLEDGETVSIETNSFENDDDHPTLPVLRNPPILESTDDLTTLSYLNEPAVLHAIKKRYMNGQIYTYSGIVLIAANPFDKVDHLYSREMIQNYSSKRKDELEPHLFAIAEEAYRFMVHEKANQTVVVSGESGAGKTVSAKYIMRYFASVQESNNREGEVEMSQIESQILATNPIMEAFGNAKTTRNDNSSRFGKYLQILFDENTTIRGSKIRTYLLEKSRLVYQPETERNYHIFYQILEGLPEPVKQELHLSSPKDYHYTNQGGQPNIAGIDEAREYKITTDALSLVGINHETQLGIFKILAGLLHIGNIEMKMTRNDASLSSEEQNLQIACELLGIDPFNFAKWIVKKQIVTRSEKIVTNLNYNQALIARDSVAKFIYSTLFDWLVDNINKTLYDPELDQQDHVFSFIGILDIYGFEHFEKNSFEQFCINYANEKLQQEFNQHVFKLEQEEYVKEEIEWSFIEFSDNQPCIDLIENKLGILSLLDEESRLPSGSDESWASKLYSAFNKPPSNEVFSKPRFGQTKFIVSHYAVDVEYEVEGFIEKNRDSVSLGHLDVFKATTNPIFKQILDNRELRSDDAPEEQNTEKKIMIPARLSQKKPTLGSMFKKSLGELMAIINSTNVHYIRCIKPNSEKKPWEFDNLMVLSQLRACGVLETIRISCAGFPSRWTFDEFVQRYFLLTDYSLWSGILYNPDLPKEAIVNFCQSILDATISDSAKYQIGNTKIFFKAGMLAFLEKLRTNKMNEICIIIQKKIRARYYRLQYLQTMESIKKCQSQIRSLLVRTRVDHELKTRAAILLQTNIRALWKREYYRAAIGQIIKLQCTCKRKLILDSVNRKFMLMAAVIIQSYIRSYGHKTDYRTLKRSSILVQSAMRMQLARRRYIVLQKEVEERNIRASYGIGLLEEAIEFKNSFILNLEMLNDSYTRLTQLLQGDLSNIPSKQRQEYETIVNGYNDKISKLKTLQVEIMNTLNKKNALKERKKKQSSLIQSHMQSLAAIKGNKPSRLSDEVKSMKQELAFIENVIAQDFTTTYSANKNDKVKGLGIAGQQVKPKLVNVIRRESGNPDLLELLMDLNCYTLEVTEGYLKKVNVTEVNGDNVLGPIHVITTVVSSLVRNGLLIQSSKFISKVLLTVESIVMSLPKDETMLGGIFWLSNLSRLPAFAANQKTLYEANGGDEKDKLTLIYLNDLENETLKVFDKIYSTWLVKFMKHASAHIEIFDMVLNEKLFKNSGDEKFAKLFTFLNEFDAVLCKFQVVDSMHTKIFNDTLKYLNVMLFNDLITKCPALNWKYGYEVDRNIERLVSWFEPRIEDVRPNLIQIIQAVKILQLKISNLNEFKLLFDFWYALNPAQIQAILLKYKPANKGEAGVPNEILNYLANVIKRENLSLPGKMEIMLSAQFDSAKNHLRYDTSAITQNSNTEGLATVSKIIKLDRK
modifications: GST-HisX6 tag
notes: yeast class V myosin heavy chain, GST-HisX6 fusion

Legend:
Settings in all cases: liposome binding signal on yeast proteome chip, Cy3-streptavidin detection
[1] = test system: phosphatidylcholine (PC) liposomes; assay: Yeast proteome chip probed with PC liposomes
Procedure, shortened: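 Yeast proteome chips incubated 1 h at RT with sonicated liposomes of PC containing 1% (w/w) biotin-DHPE, plus 5% (w/w) of the indicated phosphoinositide where applicable. After PBS washes, bound liposomes detected with Cy3- or Cy5-streptavidin (>30 min, RT, dark) and fluorescence scanned.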

PI(3,4,5)P3 liposomes = assay: Yeast proteome chip probed with PI(3,4,5)P3 liposomes
PI(3,4)P2 liposomes = assay: Yeast proteome chip probed with PI(3,4)P2 liposomes
PI(3)P liposomes = assay: Yeast proteome chip probed with PI(3)P liposomes
PI(4,5)P2 liposomes = assay: Yeast proteome chip probed with PI(4,5)P2 liposomes

Molecule | PC [1] | PI(3, 4, 5)P3 (PI(3,4,5)P3 liposomes) | PI(3, 4)P2 (PI(3,4)P2 liposomes) | PI(3)P (PI(3)P liposomes) | PI(4, 5)P2 (PI(4,5)P2 liposomes)
B1 | 1073.54 | 699.07 | 1786.71 | 7.00 | 545.23
B2 | 103.89 | 51.07 | 171.73 | 2.00 | 4.79
